Test results published in patent US20230176057A1 (CHAN ZUCKERBERG BIOHUB, published 2023).

Target: SARS-CoV-2 nucleocapsid protein (N protein) (SARS-CoV-2, UniProt P0DTC9 1-419)

B1: N-binding clone H2 Fab (Fab, V domains shown)
VH: EVQLVESGGGLVQPGGSLRLSCAASGFNVYSSSIHWVRQAPGKGLEWVASISSYYSYTSYADSVKGRFTISADTSKNTAYLQMNSLRAEDTAVYYCARSYNFSWSGYYGFDYWGQGTLVTVSS
VL: DIQMTQSPSSLSASVGDRVTITCRASQSVSSAVAWYQQKPGKAPKLLIYSASSLYSGVPSRFSGSRSGTDFTLTISSLQPEDFATYYCQQFIQFPITFGQGTKVEIKR
Binder B1 has a Kd of 20 nM.
